First the molecules themselves.
T1: human Angiopoietin-2 (human, UniProt O15123 19-496)
T1 construct: Mostly bought recombinant protein (R&D Systems 623-AM/CF, 623-AN; biotinylated BT623) or supernatant of transfected 293F cells; also called Ang-2; rhAng-2
T1 sequence: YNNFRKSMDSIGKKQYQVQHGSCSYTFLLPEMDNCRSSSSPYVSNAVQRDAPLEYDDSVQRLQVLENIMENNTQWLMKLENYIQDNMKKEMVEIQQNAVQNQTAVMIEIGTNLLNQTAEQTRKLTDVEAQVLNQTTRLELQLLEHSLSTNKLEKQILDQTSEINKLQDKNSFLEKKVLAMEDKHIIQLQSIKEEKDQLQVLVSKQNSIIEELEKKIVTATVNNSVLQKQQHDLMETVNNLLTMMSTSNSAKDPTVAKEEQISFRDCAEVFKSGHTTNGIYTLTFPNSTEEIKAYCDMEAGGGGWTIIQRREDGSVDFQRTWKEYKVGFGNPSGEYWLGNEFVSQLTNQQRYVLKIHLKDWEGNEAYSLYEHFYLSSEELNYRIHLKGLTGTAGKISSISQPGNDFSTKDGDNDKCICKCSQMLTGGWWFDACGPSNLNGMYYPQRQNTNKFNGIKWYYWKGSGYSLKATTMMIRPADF

T2: mouse Angiopoietin-2 (mouse, UniProt O35608 19-496)
T2 construct: Used as conditioned medium of transfectants; also called mAng-2; mouse Ang-2
T2 sequence: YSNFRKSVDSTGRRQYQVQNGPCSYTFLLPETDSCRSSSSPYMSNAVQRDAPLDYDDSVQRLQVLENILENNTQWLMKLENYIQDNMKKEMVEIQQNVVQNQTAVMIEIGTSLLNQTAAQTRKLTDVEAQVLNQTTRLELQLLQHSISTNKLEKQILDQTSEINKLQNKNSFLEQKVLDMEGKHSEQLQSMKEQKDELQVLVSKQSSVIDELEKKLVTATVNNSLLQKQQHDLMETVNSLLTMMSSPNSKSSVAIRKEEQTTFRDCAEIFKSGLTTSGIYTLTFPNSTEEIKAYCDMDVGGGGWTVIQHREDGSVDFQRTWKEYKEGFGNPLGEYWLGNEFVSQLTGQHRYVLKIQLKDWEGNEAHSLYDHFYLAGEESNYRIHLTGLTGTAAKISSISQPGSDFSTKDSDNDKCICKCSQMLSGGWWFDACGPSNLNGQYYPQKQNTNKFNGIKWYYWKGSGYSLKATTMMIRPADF

T3: human Ang-2 V345M (human, UniProt O15123 19-496)
T3 sequence: T1 sequence with V326M

T4: human Angiopoietin-1 (human, UniProt Q15389 20-498, limits assumed)
T4 construct: Bought recombinant protein (R&D Systems 293-AN-025/CF) or supernatant of transfected 293F cells; also called Ang-1; recombinant Ang-1
T4 sequence: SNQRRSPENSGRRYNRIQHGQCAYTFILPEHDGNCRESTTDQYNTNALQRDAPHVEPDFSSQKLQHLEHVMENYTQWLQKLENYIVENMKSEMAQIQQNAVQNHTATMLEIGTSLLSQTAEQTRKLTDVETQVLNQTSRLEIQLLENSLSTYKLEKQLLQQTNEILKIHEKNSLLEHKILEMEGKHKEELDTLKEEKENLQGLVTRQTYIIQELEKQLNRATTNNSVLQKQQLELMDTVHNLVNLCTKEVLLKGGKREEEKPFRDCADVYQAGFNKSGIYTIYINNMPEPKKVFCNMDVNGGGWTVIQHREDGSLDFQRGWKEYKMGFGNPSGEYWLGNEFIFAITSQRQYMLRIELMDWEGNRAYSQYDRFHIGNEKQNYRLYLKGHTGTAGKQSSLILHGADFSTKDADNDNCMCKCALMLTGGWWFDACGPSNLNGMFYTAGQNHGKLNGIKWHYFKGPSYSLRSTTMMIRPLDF

B1: mAb 5.35.1 (antibody, V domains shown)
VH: EVQLVESGGGVVRPGGSLRLSCTTSGFTFDDYGMSWVRQAPGKGLEWVSGINWNGGSTVYADSVKGRFTISRDSAKNSLYLQMNSLRAEDTALYHCARNKQWLWYFDLWGRGTLVTVSS
VL: EIVMTQSPATLSVSPGERATLSCRASQSVSSNLAWYQQKPGQAPRLLIYGASTRATGIPARFSGSGSGTEFTLTISSLQSEDFAVYYCEQYNNWPLTFGGGTKVEIKR
notes: Human hybridoma IgG (XenoMouse); also called x5.35
B2: mAb 5.103.1 (antibody, V domains shown)
VH: QVQLVQSGAEVKKPGASVKVSCKASGYTFTGYYLYWVPQAPGQGLEWMGWISPNSGGTNYAQKFQGRVTMTRDTSISTAYMELSRLRSDDTAVYYCARDQVIAVAGPFDYWAQGTLVTVSS
VL: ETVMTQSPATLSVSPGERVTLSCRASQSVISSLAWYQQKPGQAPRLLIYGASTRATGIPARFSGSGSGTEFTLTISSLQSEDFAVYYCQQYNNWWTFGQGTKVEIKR
notes: Human hybridoma IgG (XenoMouse); also called 5.103.3; x5.103
B3: mAb 5.13.1 (antibody, V domains shown)
VH: EVQLVESGGGLVQPGGSLRLSCAASGFTFSSYWMSWVRQAPGKGLEWVANIKQDGSEKYYVDSVKGRFTISRDNAKNSLYLQMNSLRAEDTAVYYCARDPGIAVAGPFDYWGQGTLVTVSS
VL: EIVMTQSPATLSVSPGERATLSCRASQSVSSNLAWYQQKPGQAPRLLIYGASTRATGIPARFSGSGSGTEFTLTISSLQSEDFAVYYCQQYNHWWTFGQGTKVEIKR
notes: Human hybridoma IgG (XenoMouse); also called x5.13
B4: mAb 5.108.1 (antibody, V domains shown)
VH: QVQLVESGGGVVQPGRSLRLSCAASGFTFSSYGMHWVRQAPGKGLEWVAVIWYDGSNKYYADSVKGRFTISRDNSKNTLYLQMNSLRAEDTAMYYCARELALWGQGTLVTVSS
VL: B3 VL with N32Y, S52F, S63R, T69P, N92S
notes: Human hybridoma IgG (XenoMouse); also called x5.108
B5: mAb 5.39.1 (antibody, V domains shown)
VH: QVQLVQSGAEVTKPGASVKVSCKASGYTFTAYHMYWVRQAPGQGLEWMGWINPNSGGTNYAQKFQGRVTMTRDTSISTAYMELSRLRSDDSPVYYCARDQGIAAAGPFDYWGQGTLVTVSS
VL: B3 VL with E17D, L33F, A51S, N92H, H93Y, I105F
notes: Human hybridoma IgG (XenoMouse); also called x5.39
B6: mAb 5.40.2 (antibody, V domains shown)
VH: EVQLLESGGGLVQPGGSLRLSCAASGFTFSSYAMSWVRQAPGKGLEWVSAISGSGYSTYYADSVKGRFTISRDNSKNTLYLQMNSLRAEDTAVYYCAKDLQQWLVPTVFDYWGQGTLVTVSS
VL: B3 VL with A34V, G50D, A51S, A60V
notes: Human hybridoma IgG (XenoMouse); also called x5.40
B7: mAb 5.62.1 (antibody, V domains shown)
VH: B3 VH
VL: B3 VL with S52F, E104G
notes: Human hybridoma IgG (XenoMouse); also called x5.62

Residue numbers refer to the chain shown, from its start.

The values that follow come from patent publication US20080267971A1 (published 2008).

In the first assay the target is T1, human Angiopoietin-2. The assay can be described thus: Biacore; kd held constant (*). As to the method: The label-free surface plasmon resonance (SPR), or Biacore, was utilized to measure the antibody affinity to the antigen. For this purpose, a high-density goat anti-human antibody surface over a CM5 Biacore chip was prepared using routine amine coupling. All the purified mAbs were diluted to approximately 8 μg/ml in HBS-P running buffer containing 100 μg/ml BSA and 10 mg/mL carboxymethyldextran. Each mAb was captured on a separate surface using a 42-second contact time, and a 5-minute wash for stabilization of the mAb baseline.
Data were fit globally to a 1:1 interaction model to determine the binding kinetics.
(In general: In SPR one partner is held on a chip, and binding of the other changes the refractive index at the surface.)
By koff is commonly meant the rate constant with which the complex falls apart. On to B1, for which the koff is not above 1e-05 s⁻¹.
Same read-out and setting: the result for B2 reads not above 1e-05 s⁻¹; that for B3, not above 1e-05 s⁻¹.
The same measure, in the same setting: the result for B4 reads not above 1e-05 s⁻¹; that for B5, not above 1e-05 s⁻¹; that for B6, not above 1e-05 s⁻¹.
The same measure, in the same setting: as for B7, the figure is not above 1e-05 s⁻¹.

In the next assay the target is T2, mouse Angiopoietin-2. The assay can be described thus: ELISA, recombinant mouse Ang-2. Background: ELISA stands for enzyme-linked immunosorbent assay.
Regarding B1, the binding result was “no binding”.
Same read-out and setting: as for B2, the entry is “no binding”; as for B3, “no binding”; as for B4, “no binding”.
On the same count and under the same terms, as for B5, the entry is “no binding”; as for B6, “no binding”.
Turning to B7, the binding result is “no binding”.

A further assay concerns the target T1, human Angiopoietin-2. The assay can be described thus: inhibition of rhAng-2 binding to its receptor.
For B1, the “OD650 in inhibition assay” value was found to be 0.0663 OD650.
Still for that read-out and setting: the result for B2 reads 0.101 OD650.
As to B3, the “OD650 in inhibition assay” value came out at 0.0744 OD650.
Same read-out and setting: the result for B4 reads 0.0688 OD650; that for B5, 0.0519 OD650; that for B6, 0.0691 OD650.
In the case of B7, the “OD650 in inhibition assay” value is 0.065 OD650.

The next assay has as its target T3, human Ang-2 V345M. The assay can be described thus: ELISA.
Take B1: the “% of binding to human Ang-2” value came to 100%.
Still for that read-out and setting: as for B2, the figure is 100%; as for B3, 100%.
On to B4, for which the “% of binding to human Ang-2” value was 100%.
The same measure, in the same setting: as for B5, the figure is 100%.
On the same count and under the same terms, the result for B6 reads 100%.
The same measure, in the same setting: as for B7, the figure is 100%.

A further assay addresses T4, human Angiopoietin-1. The assay can be described thus: capture ELISA. As to the method:
The binding of the top 27 human monoclonal antibodies was detected with a HRP-conjugated goat anti-human antibody, followed by colorimetric horseradish peroxidase substrate (Enhanced K-Blue TMB substrate Neogen Corporation). The absorbance of each well of the ELISA plates was measured at 450 nm on a microplate autoreader.
In the case of B1, the binding result is on record as “no binding”.
Regarding B2, the binding result is listed as “no binding”.
Regarding B3, the binding result was “no binding”.
On the same count and under the same terms, as for B4, the entry is “no binding”; as for B5, “no binding”.
For the molecule B6, the binding result was “no binding”.
Same read-out and setting: as for B7, the entry is “no binding”.
